The record followed here is article PMC10123104.

Substrate in the data set: Nc1nc2c(ncn2[C@@H]2O[C@H](COP(=O)(O)OP(=O)(O)OP(=O)(O)O)[C@@H](O)[C@H]2O)c(=O)[nH]1
Kind of data set: purified protein, by the assay type. The format is biochemical. Here is the method: Nucleotides were detected at 254 nm. […] All measurements were performed in triplicate.

B1: ObgE (Escherichia coli K-12) (protein)
chain: MKFVDEASILVVAGDGGNGCVSFRREKYIPKGGPDGGDGGDGGDVWMEADENLNTLIDYRFEKSFRAERGQNGASRDCTGKRGKDVTIKVPVGTRVIDQGTGETMGDMTKHGQRLLVAKGGWHGLGNTRFKSSVNRTPRQKTNGTPGDKRELLLELMLLADVGMLGMPNAGKSTFIRAVSAAKPKVADYPFTTLVPSLGVVRMDNEKSFVVADIPGLIEGAAEGAGLGIRFLKHLERCRVLLHLIDIDPIDGTDPVENARIIISELEKYSQDLATKPRWLVFNKIDLLDKVEAEEKAKAIAEALGWEDKYYLISAASGLGVKDLCWDVMTFIIENPVVQAEEAKQPEKVEFMWDDYHRQQLEEIAEEDDEDWDDDWDEDDEEGVEFIYKR
notes: full length, N-terminally His6-tagged (pET28a), nucleotide-free after alkaline phosphatase treatment
As a reminder, the Km is the concentration of substrate that gives half-maximal velocity. On to B1, for which the Km came to 4 µM.
